Measurements: article PMC3544317 (2014)

T1: FVa (FVa2) (Homo sapiens, UniProt P12259)
T1 chain 1: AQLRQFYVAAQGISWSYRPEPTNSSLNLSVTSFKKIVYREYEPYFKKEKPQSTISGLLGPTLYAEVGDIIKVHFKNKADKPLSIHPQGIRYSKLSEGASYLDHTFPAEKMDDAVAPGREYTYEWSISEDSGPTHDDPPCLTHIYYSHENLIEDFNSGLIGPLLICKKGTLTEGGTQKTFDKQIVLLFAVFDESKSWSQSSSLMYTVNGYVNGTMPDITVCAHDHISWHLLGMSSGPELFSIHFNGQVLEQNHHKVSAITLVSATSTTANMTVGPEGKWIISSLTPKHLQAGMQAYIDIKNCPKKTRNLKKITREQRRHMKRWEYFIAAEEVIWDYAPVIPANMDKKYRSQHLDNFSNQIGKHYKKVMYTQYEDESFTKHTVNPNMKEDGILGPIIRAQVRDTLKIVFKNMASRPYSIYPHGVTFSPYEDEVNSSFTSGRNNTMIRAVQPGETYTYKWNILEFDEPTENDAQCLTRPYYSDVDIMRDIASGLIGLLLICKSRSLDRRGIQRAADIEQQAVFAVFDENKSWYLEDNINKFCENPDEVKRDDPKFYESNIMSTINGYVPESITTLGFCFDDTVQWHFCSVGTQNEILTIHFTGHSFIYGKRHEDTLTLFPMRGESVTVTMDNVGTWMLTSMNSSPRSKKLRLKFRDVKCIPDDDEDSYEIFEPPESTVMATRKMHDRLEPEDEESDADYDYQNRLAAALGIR
T1 chain 2: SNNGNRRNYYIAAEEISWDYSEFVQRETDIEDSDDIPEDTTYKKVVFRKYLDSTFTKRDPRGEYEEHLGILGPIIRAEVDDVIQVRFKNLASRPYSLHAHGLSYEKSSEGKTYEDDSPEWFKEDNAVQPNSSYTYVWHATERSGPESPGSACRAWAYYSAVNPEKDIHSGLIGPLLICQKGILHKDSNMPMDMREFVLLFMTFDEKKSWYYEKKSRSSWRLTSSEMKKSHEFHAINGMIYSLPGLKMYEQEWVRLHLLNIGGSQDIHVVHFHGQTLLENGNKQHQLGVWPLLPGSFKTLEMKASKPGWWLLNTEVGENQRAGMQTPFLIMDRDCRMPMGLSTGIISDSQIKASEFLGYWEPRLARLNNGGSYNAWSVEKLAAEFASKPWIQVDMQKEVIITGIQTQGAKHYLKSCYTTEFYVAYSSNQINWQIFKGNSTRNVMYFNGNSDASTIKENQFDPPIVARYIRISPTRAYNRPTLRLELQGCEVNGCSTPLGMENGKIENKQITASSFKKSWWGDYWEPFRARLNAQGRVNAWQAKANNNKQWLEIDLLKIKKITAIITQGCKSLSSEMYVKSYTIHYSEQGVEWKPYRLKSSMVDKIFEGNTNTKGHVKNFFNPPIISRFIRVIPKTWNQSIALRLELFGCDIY

T2: FXa (Homo sapiens, UniProt P00742)
T2 chain 1: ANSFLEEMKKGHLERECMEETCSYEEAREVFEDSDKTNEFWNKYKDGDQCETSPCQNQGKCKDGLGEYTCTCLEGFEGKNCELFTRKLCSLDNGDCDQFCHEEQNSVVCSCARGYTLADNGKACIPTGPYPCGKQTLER
T2 chain 2: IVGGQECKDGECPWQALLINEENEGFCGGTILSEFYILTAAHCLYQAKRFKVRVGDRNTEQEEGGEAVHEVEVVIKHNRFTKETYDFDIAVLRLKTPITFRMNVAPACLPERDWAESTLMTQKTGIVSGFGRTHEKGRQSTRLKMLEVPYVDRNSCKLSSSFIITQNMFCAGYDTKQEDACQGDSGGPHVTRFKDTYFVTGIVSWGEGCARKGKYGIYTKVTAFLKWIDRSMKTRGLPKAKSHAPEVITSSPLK

T3: DEGR-FXa (Homo sapiens, UniProt P00742)
T3 chain 1: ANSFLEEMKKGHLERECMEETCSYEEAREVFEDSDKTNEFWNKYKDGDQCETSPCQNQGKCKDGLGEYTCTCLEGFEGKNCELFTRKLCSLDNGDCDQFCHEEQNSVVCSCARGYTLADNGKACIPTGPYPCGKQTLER
T3 chain 2: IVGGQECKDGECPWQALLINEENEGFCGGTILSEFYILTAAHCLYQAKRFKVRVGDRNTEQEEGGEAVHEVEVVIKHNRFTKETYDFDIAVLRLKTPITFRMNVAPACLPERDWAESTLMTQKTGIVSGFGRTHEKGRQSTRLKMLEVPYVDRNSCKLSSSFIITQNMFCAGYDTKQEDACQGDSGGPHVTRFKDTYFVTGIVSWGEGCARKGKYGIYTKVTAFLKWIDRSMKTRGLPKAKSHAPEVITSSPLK


Tests used:
FVa (FVa2) [1] = target: T1, FVa (FVa2); assay: global fit of activity
FXa = target: T2, FXa; assay: prothrombin activation rate vs FXa
FVa (FVa2) [2] = target: T1, FVa (FVa2); assay: prothrombinase activity titration
FVa (FVa2) [3] = target: T1, FVa (FVa2); assay: prothrombinase activity titration
FVa (FVa2) [4] = target: T1, FVa (FVa2); assay: global fit of activity, dimer competition model
FVa (FVa2) [5] = target: T1, FVa (FVa2); assay: prothrombinase activity titration
DEGR-FXa = target: T3, DEGR-FXa; assay: fluorescence of active-site-labeled FXa

Kd (FVa (FVa2) [1]) [nM] | Kd (FXa) [nM] | Kd (FVa (FVa2) [2]) [nM] | Kd (FVa (FVa2) [3]) [nM] | Kd (FVa (FVa2) [4]) [nM] | Kd (FVa (FVa2) [5]) [nM] | Kd (DEGR-FXa) [nM] | Binder
0.43 | 16 | 2.2 | 43 | 0.32 | 20 | – | FXa (protein, C6PS, 5 mM Ca2+) chain 1: ANSFLEEMKKGHLERECMEETCSYEEAREVFEDSDKTNEFWNKYKDGDQCETSPCQNQGKCKDGLGEYTCTCLEGFEGKNCELFTRKLCSLDNGDCDQFCHEEQNSVVCSCARGYTLADNGKACIPTGPYPCGKQTLER chain 2: IVGGQECKDGECPWQALLINEENEGFCGGTILSEFYILTAAHCLYQAKRFKVRVGDRNTEQEEGGEAVHEVEVVIKHNRFTKETYDFDIAVLRLKTPITFRMNVAPACLPERDWAESTLMTQKTGIVSGFGRTHEKGRQSTRLKMLEVPYVDRNSCKLSSSFIITQNMFCAGYDTKQEDACQGDSGGPHVTRFKDTYFVTGIVSWGEGCARKGKYGIYTKVTAFLKWIDRSMKTRGLPKAKSHAPEVITSSPLK
– | – | 1.7 | 8 | – | – | – | FXa (protein, C6PS, 3 mM Ca2+) chain 1: ANSFLEEMKKGHLERECMEETCSYEEAREVFEDSDKTNEFWNKYKDGDQCETSPCQNQGKCKDGLGEYTCTCLEGFEGKNCELFTRKLCSLDNGDCDQFCHEEQNSVVCSCARGYTLADNGKACIPTGPYPCGKQTLER chain 2: IVGGQECKDGECPWQALLINEENEGFCGGTILSEFYILTAAHCLYQAKRFKVRVGDRNTEQEEGGEAVHEVEVVIKHNRFTKETYDFDIAVLRLKTPITFRMNVAPACLPERDWAESTLMTQKTGIVSGFGRTHEKGRQSTRLKMLEVPYVDRNSCKLSSSFIITQNMFCAGYDTKQEDACQGDSGGPHVTRFKDTYFVTGIVSWGEGCARKGKYGIYTKVTAFLKWIDRSMKTRGLPKAKSHAPEVITSSPLK
– | – | – | – | – | – | 600 | DEGR-FXa (protein, DEGR active-site label, C6PS, 3 mM Ca2+) chain 1: ANSFLEEMKKGHLERECMEETCSYEEAREVFEDSDKTNEFWNKYKDGDQCETSPCQNQGKCKDGLGEYTCTCLEGFEGKNCELFTRKLCSLDNGDCDQFCHEEQNSVVCSCARGYTLADNGKACIPTGPYPCGKQTLER chain 2: IVGGQECKDGECPWQALLINEENEGFCGGTILSEFYILTAAHCLYQAKRFKVRVGDRNTEQEEGGEAVHEVEVVIKHNRFTKETYDFDIAVLRLKTPITFRMNVAPACLPERDWAESTLMTQKTGIVSGFGRTHEKGRQSTRLKMLEVPYVDRNSCKLSSSFIITQNMFCAGYDTKQEDACQGDSGGPHVTRFKDTYFVTGIVSWGEGCARKGKYGIYTKVTAFLKWIDRSMKTRGLPKAKSHAPEVITSSPLK
